We go through two substances from paper PMC3132758.

The target in experiment [1] is CdvC from Metallosphaera sedula (Vps4-like AAA ATPase) (Metallosphaera sedula). The experiment is described as follows: SEC; CdvC alone at >75 µM (180 µM) on Superose 6; single high molecular weight peak.
Experiment [2] addresses CdvB from Metallosphaera sedula (ESCRT-III-like), full length (Metallosphaera sedula). Briefly: SEC; CdvB and CdvC mixed, 20 µM each, on Superose 6; fractions analysed by SDS-PAGE; void volume peak holds both.

Consider “CdvC from Metallosphaera sedula (Vps4-like AAA ATPase) (enzyme)”, for which the stoichiometry N in experiment [1] was 12. “CdvC from Metallosphaera sedula (Vps4-like AAA ATPase)”: the stoichiometry N in experiment [2] was found to be 1.
